B1: anti-PD-L1 antibody H10 (antibody, V domains shown)
VH: EVQLVQSGGGLVQPGGSLRLSCAASGFTFSSYSMNWVRQAPGKGLEWVSYISSSSSTIYYADSVKGRFTISRDNAKNSLYLQMNSLRDEDTAVYYCARGDYYYGMDVWGQGTTVTVSS
VL: EIVLTQSPSSLSASIGDRVTLTCRASQSIRRFLNWYQQKPGKAPELLIYTASSLQSGVPSRFSGSGSGTDFTLTINSLQPEDFATYYCQQSYAVSPYTFGQGTKVEIR
notes: Fully human antibody of an IgG class
B2: anti-PD-L1 antibody H6 (antibody, V domains shown)
VH: QMQLVQSGAEVKKPGSSVKVSCKASGGTFSSYAISWVRQAPGQGLEWMGGIIPIFGTANYAQKFQGRVTITADESTSTAYMELSSLRSEDTAVYYCARGNIVATITPLDYWGQGTLVTVSS
VL: SYELMQPPSVSVAPGKTATIACGGENIGRKTVHWYQQKPGQAPVLVIYYDSDRPSGIPERFSGSNSGNTATLTISRVEAGDEADYYCQVWDSSSDHRIFGGGTKLTVL
notes: as for B1

Molecular target: T1, human PD-L1 expressed on the cell surface (human, UniProt Q9NZQ7 19-290)
T1 construct: whole, on cells; also called CHO-PD-L1
Experiment: flow cytometry on anti-CD3 activated human lymphocytes (CD19 negative gate), PE anti-human Ig detection
Method: This example provides a characterization of the disclosed anti-PD-L1 antibodies binding to human PD-L1 expressed on human lymphocytes. Human peripheral blood mononuclear cells were activated by culture with anti-CD3 for three days to promote expression of PD-L1. Binding was assessed by adding serial dilutions of the antibody to the activated lymphocytes. After washing, binding was detected by staining with a phycoerythrin labeled anti-human Ig reagent followed by analysis using a FACS Aria (Becton Dickinson, San Jose, Calif.). Since the anti-human Ig reagent reacts with immunoglobulin on B lymphocytes the cells were co-staining with an anti-human CD19 APC-Cy5 reagent.

T1 sequence (Q9NZQ7 19-290): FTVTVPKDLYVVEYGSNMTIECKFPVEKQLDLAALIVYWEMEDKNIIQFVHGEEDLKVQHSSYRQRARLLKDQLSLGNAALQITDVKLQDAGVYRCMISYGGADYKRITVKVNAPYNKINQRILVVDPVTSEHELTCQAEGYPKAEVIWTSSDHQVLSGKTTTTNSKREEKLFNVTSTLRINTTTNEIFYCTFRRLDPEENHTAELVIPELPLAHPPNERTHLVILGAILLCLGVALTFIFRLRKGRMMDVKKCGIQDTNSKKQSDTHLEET

Row | Binder | EC50 [pM]
1 | B1 | ~100
2 | B2 | ~100
